In the supplement of paper PMC9170038:

Tests used:
MS2 coat protein [1] = assay: apparent KD of MS2 coat protein, switch OFF state (with FMN for OFF switches, without FMN for ON switches); designed switch direction (-1 OFF switch, 1 ON switch): -1; higher = weaker reporter binding; settings: FMN input: 0 or 200 uM; Eterna round: R93 (includes R88 designs)
Method in brief: (§1)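 Normalised binding curves from single clusters were fitted, and the median fit for each design is given as apparent KD. The clusters held designed RNA switches transcribed on-chip from Illumina sequencing clusters. These were titrated with SNAP-549-labelled MS2 coat protein (twofold steps from 0.7 or 1.5 nM to 3 µM, 0.8–1.5 h to 10–20 min per step) in 100 mM Tris-HCl pH 7.5, 80 mM KCl, 4 mM MgCl2, without or with constant ligand.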

MS2 coat protein [2] = assay: apparent KD of MS2 coat protein, switch ON state; designed switch direction (-1 OFF switch, 1 ON switch): -1; higher = weaker reporter binding; settings: FMN input: 0 or 200 uM; Eterna round: R93 (includes R88 designs)
Method in brief: as §1

Sequence | apparent KD of MS2 coat protein (MS2 coat protein [1]) [nM] | apparent KD of MS2 coat protein (MS2 coat protein [2]) [nM]
AGUUGGCGAGGAUAUACAUGAGGAUCACCCAUGUGAAAUCGCGAAGAAAUAGGGAAAAGUAGAAGGCGCUGACA [Ruby 61] | 19.9 | 11.6
AAAAAACAUGAGGAUCACCCAUGUCAGGAUAUCCGGUUAAAAAAAAAAAAAAGGCGUUGGAGAAGGGACAUUCC [Chica Displaced 9 - Jieux - Exclusion 1] | 33.4 | 25.7
AACAGGACAGGAUAUACAUGAGGAUCACCCAUGUGAAGAUUAAGAAGAAAACCACAAAGUAGAAGGGUCCUGGA [Ruby 94] | 79.2 | 35.1
AGAAUUGUAGGAUAUACAUGAGGAUCACCCAUGUGGGAGGUGGAGCAAACAAGACGAGGUAGAAGGACAACGAC [JR_Exc003-Sub904] | 125 | 134
AGUAGUACAGGAUAUACAUGAGGAUCACCCAUGUGAAAAGAAAGUGGCGUACCACAAAGUAGAAGGGUACUACA [Mat - Exclusion 3 - JL mod - D34] | 152 | 33.7
AAAAAACAUGAGGAUCACCCAUGUGAGGAUAUGCAAAAAAAAAAAAAAAAAUAAAAAAGCAGAAGGCACAAAAA [Sh'dynasty] | 33.2 | 30.6
GAUAGUGAAGGAUAUACUGGAGGAGUGCGAUAAAAGAAAGAACAUGAGGAUCACCCAUGUAGAAGGUCAGAAGU [JR_Exc002_Sub1226] | 27.3 | 24.7
AAAGGCUUAGGAUAUACAGUGGUCCCAAUGGGCAUCCGAAAACAUGAGGAUCACCCAUGUAGAAGGAAGAAAAU [Raleor] | 64.7 | 68.5
ACCUUACAUGAGGAUCACCCAUGUUAGGAUAUCUCGCUUUCGCAAUCACAGCGCAAGCAGAGAAGGGACACGGG [Esceari] | 66.6 | 28.3
UAAAAACAUGAGGAUCACCCAUGUGAGGAUAUACGAAAGUAGAAGGCACUAAAAUAAAAUAGAAGGAUAAAAUA [Meechl Ex1 R2 m1] | 37.5 | 23.2
AAAGGAUCAGGAUAUGUGUGGAAAAAGUGUAUCCGAAAAAAACAUGAGGAUCACCCAUGUAGAAGGGAUCCAAA [Mod 3 of Normal (20/19) by Nando, Round 1] | 464 | 182
CAGUACUGAGGAUAUACAUGAGGAUCACCCAUGUAUCCAAGCUAGGAAACUAGCACAUGUAGAAGGCAGUACUG [Ex3: 822] | 34.5 | 294
AAAUAGCAAGGAUAUACAUGAGGAUCACCCAUGUAAGGAUGGAAAGUAAUAGAAGAAAGUAGAAGGUGCAAAUA [Ex 3 Tesla 4] | 36 | 31.7
AAGAACGCAGGAUAUACAUGAAAGAAAGAAAAGAAAAGAAAACAUGAGGAUCACCCAUGUAGAAGGGCGAAGAA [EteRNA is fun!] | 39.6 | 37.9
AGCUAGUCAGGAUAUACGAACAUGACAAAAGACGUGAAGGGACAUGAGGAUCACCCAUGUAGAAGGGACUAGCA [74%, Web mod - With 1 less U's] | 89.7 | 38.7
ACUAUACGAGGAUAUGCUGUCAACACUAAGGAAUUCGUAUGACAUGAGGAUCACCCAUGUAGAAGGCGUAUACU [JR_Exc002_Sub510] | 27.7 | 23.3
ACAUGUACAGGAUAUACAUGGAAAAAAAAAAAAAAAAAACUACAUGAGGAUCACCCAUGUAGAAGGGUACAUGA [Ex2 Design 193: Random 12B] | 25.7 | 25.8
AAUGCGGCAGGAUAUACAUGAGGAUCACCCAUGUACAUCAGAUAUAUGGUCGAACCAUGUAGAAGGGCCGCAAA [Ex 3May 57] | 202 | 87.3
AGAAAGUCAGGAUAUGCAGAAAAAAAAACGAAAAAAAAACUGCAGAAGGGACAUGAGGAUCACCCAUGUUAAGA [Mat - Exclusion 4 - Mayanna - D130] | 49 | 49
GGUUGUCGAGGAUAUACAUGAGGAUCACCCAUGUGAGAGAAAAAAGUGAGAAAGAAAAGUAGAAGGCGAUGACG [salish99-ex3-58] | 180 | 38.2
AGGAUGUCAGGAUAUGUGUAAAGAAUAAAACAAAUAACAACACAGAAGGGACAUGAGGAUCACCCAUGUUAAGA [May 44] | 55.7 | 36.8
AAAUGAUGAGGAUAUACAUGAGGAUCACCCAUGUGUAAAAAUAAAUACACAAAAGAAAGUAGAAGGCAUCAAAA [Ex 3 May 12] | 99 | 22.7
AGAAAACAUGAGGAUCACCCAUGUCAGGAUAUGUAAAAGAAAAGAAAAGAAAGAAGAAGCAGAAGGGACAAGAA [Sekhemkhet] | 36.8 | 28.8

Sequence | apparent KD of MS2 coat protein (MS2 coat protein [1]) [nM] | apparent KD of MS2 coat protein (MS2 coat protein [2]) [nM]
AAAUGCUGAGGAUAUACAUGAGGAUCACCCAUGUAAAAUAAAUAAUAGGUGUAAACGUGUAGAAGGCAGCAUAA [Exclusion 3.14a (FMN+ favored )] | 27.5 | 62.6
AACAGCACAGGAUAUACAUGAGGAUCACCCAUGUGAGAAUUAAGUGGCGUACCACAAAGUAGAAGGGUGCUGGA [Mat - Exclusion 3 - JL mod - D39] | 203 | 35.9
AAAGGACGAGGAUAUACAUGAGGAUCACCCAUGUAAAGGGCAUAAUAAAAGAACUUAUGUAGAAGGCGUCCAAA [69%, Moding Meechl, 6] | 15.6 | 79.1
AAAAAGCGAGGAUAUACAUAGCUAAGACGUGUGAGCGAAAAACAUGAGGAUCACCCAUGUAGAAGGCGCAAAAA [Exclusion2-03] | 16.9 | 18.2
AAGAAUCGAGGAUAUACAUGAGGAUCACCCAUGUAAAAGAAAGAAAGGGAAAAGAAAAGUAGAAGGCGAAAGAA [Usermaatre-setepenre Shoshenq III] | 23.6 | 23.4
AGCUAGUCAGGAUAUACAAACAUGUCAAAAGACGUGAAGAAACAUGAGGAUCACCCAUGUAGAAGGGACUAGCA [Mat - Exclusion 2 - JL mod - D16] | 14.5 | 19.9
AGAAAGACAGGAUAUACAUGAGGAUCACCCAUGUAAAAGAAAGAAAAGGGAAAGAAAAGUAGAAGGGUCAAAGA [Ruby 64] | 42.1 | 22.1
AUAAACUGAGGAUAUACAUGAGGAUCACCCAUGUAAAAAAAGAAAUGAUCCUCAGGAAGUAGAAGGCAGAAUAA [JR_Exc003_Sub017] | 28.3 | 13.2
AGCAUGUGAGGAUAUGUGACCCUCGUCCUAAGGAUGAGGAAAUAGAAGGCACAUGAGGAUCACCCAUGUGAUGA [Eratusar] | 293 | 65.4
AAAAAUGGAGGAUAUACAUGAGGAUCACCCAUGUGUAACAAAACAAAACACAAAAAAAGUAGAAGGCCAAAAAA [Gilly Gone Silly 5 - Jieux - Exclusion 3] | 20.4 | 19.2
AAGAAACAUGAGGAUCACCCAUGUAAGGAUAUGAAAAAGAAAAGAAAAGAAAGAAGAAUCAGAAGGUACAAAGG [Nakhtnebtepnefer Intef III] | 26.1 | 24.1
AAAAAUUGAGGAUAUACGAACAUGUCGAAAGACGUGAAGGGACAUGAGGAUCACCCAUGUAGAAGGCGAAAAAA [Mat - Exclusion 2 - JL mod - D68] | 20.7 | 33.7
GGAAAACAUGAGGAUCACCCAUGUAAGGAUAUGCAAAAAAAAAAGGAUAUAGAAGGAAGCAGAAGGUACAAAGG [salish99-ex1-28] | 55.1 | 24.5
AACAGUACAGGAUAUACAUGAGGAUCACCCAUGUGAAAUAAAAGUGGCGUACCACAAAGUAGAAGGGUACUGAA [Mat - Exclusion 3 - JL mod - D27] | 90.5 | 27.1
UUUAUGUGAGGAUAUCAGUAGUAAAAAAAUAAAAUUACUACUGAGAAGGCACAUGAGGAUCACCCAUGUGUCUC [EX4 350: Super Stable 50] | 15 | 17.5
AAAAAACAUGAGGAUCACCCAUGUGAGGAUAUCCAGAAGGGAAUAAAAUAACACGAAAGGAGAAGGCGCAAAAA [Ex 1 May 35] | 31.1 | 35.8
AGGGAACAUGAGGAUCACCCAUGUGAGGAUAUUGAAAAGAAAAGAAAAGAAAGAAGAACAAGAAGGUACAAGAA [Meryre Pepi I] | 24.8 | 21.8
GUGUACAGAGGAUAUACUAAAGCUAGGAAACUAGCAAGAUCACAUGAGGAUCACCCAUGUAGAAGGCUGUACAC [Ex2: 740] | 500 | 58.1
AACGAACAUGAGGAUCACCCAUGUCAGGAUAUGCGAAGAACGAUCGAACAAACGAUAAGCAGAAGGGACAGAGA [Amethyst 98] | 50 | 25.1
AAGACUAGAGGAUAUACAUGAGGAUCACCCAUGUAACUGUCAGGAAACUGACGGAGAAGUAGAAGGCUAGUCAA [Mat - Exclusion 3 - JL mod - D85] | 20.2 | 16.1
CAGUACUGAGGAUAUACAUGAGGAUCACCCAUGUGAUCAAGCUACGAAAGUAGCAAAAGUAGAAGGCAGUACUG [Ex3: 810] | 56.7 | 277
UAAAAACAUGAGGAUCACCCAUGUGAGGAUAUGUGAAAAAAAAAAAAAAAAAAAACAAGCAGAAGGCACAAAAA [JR_Exc001_Sub020] | 584 | 67.6
